Experimental data as given in patent US20240035010, “COMPOSITIONS COMPRISING A VARIANT POLYPEPTIDE AND USES THEREOF” (Arbor Biotechnologies, Inc., published 2024).

How the values were obtained:
[1] = biological target: T1, variant nuclease 7 substitutions D590G/E154G/E736G (P14R, D32R, I61R, E311R, D590G, E154G, E736G); test: cell_activity; PAM 5'-TTTA-3'; details: tags: pcDNA3.1 expression
T1 chain: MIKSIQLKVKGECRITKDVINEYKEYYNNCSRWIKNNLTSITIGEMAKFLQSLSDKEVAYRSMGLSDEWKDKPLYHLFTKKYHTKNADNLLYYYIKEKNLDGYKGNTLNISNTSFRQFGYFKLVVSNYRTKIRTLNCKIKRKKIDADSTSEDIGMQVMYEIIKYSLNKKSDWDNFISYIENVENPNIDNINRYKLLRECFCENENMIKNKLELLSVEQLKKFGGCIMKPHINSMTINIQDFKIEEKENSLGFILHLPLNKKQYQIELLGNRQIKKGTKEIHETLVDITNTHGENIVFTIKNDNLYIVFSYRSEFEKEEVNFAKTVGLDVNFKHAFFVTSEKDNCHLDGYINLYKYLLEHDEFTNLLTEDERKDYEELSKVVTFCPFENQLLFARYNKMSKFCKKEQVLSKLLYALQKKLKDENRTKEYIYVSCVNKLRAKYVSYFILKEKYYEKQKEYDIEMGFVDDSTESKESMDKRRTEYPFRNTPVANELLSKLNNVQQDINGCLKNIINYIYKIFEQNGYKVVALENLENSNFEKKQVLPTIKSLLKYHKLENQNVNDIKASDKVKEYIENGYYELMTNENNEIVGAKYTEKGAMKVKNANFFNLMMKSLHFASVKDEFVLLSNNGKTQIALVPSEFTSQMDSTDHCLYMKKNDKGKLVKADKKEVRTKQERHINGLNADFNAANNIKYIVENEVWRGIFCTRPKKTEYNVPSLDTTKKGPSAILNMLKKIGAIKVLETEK
In short: (§1)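 HEK293T cells were lipofected with nuclease plasmid (pcDNA3.1 backbone) plus RNA guide plasmid, with guide omitted in negative controls. After ~72 h cells were lysed in QuickExtract and % indels were derived from NGS reads, averaged over two bioreplicates and two technical replicates.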

[2] = biological target: T2, variant nuclease K35G combination (P14R, D32R, I61R, E311R, K35G); test: cell_activity; PAM 5'-TTTA-3'; details: tags: pcDNA3.1 expression
T2 chain: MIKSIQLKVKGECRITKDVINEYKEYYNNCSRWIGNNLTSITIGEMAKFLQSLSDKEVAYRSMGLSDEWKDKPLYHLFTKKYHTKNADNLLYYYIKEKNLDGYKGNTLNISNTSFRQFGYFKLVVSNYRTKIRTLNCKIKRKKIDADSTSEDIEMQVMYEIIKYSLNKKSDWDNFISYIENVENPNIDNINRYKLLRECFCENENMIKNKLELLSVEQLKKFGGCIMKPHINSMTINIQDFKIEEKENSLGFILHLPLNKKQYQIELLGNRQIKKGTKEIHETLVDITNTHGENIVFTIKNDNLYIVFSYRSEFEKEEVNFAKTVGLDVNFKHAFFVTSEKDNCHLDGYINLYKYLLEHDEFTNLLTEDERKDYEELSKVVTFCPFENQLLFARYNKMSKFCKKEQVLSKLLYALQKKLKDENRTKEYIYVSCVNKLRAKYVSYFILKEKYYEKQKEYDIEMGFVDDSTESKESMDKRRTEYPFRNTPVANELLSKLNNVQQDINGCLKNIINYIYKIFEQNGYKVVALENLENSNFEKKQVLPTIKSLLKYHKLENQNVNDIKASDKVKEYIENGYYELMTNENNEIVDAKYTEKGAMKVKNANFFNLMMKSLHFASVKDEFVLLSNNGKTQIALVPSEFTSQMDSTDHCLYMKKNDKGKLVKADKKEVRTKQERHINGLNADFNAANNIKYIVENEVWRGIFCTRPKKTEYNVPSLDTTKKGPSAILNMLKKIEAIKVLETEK
In short: as §1

B1: VEGFA crRNA ; VEGFA target (ssRNA ; dsDNA)
RNA: CUUGUUGUAUAUGUCCUUUUAUAGGUAUUAAACAACUCCAGACCACCAAUGGGCAC
DNA 1: TCCAGACCACCAATGGGCAC
DNA 2: GTGCCCATTGGTGGTCTGGA
[1]
  indel activity: 3.13 fold of WT
[2]
  indel activity: 2.69 fold of WT
